In patent US20100150950A1, “HUMAN ANTIBODIES THAT BIND CD70 AND USES THEREOF” (Medarex, Inc., priority 2006, published 2010):

T1: CD70 expressed on the surface of Daudi lymphoma cells (Homo sapiens, UniProt P32970)
T1 construct: endogenous in cells; host or cells: Daudi (ATCC CCL-213), HuT 78 (TIB-161), Raji (CCL-86), Granta 519 (DSMZ 342)
T1 sequence (P32970 1-193): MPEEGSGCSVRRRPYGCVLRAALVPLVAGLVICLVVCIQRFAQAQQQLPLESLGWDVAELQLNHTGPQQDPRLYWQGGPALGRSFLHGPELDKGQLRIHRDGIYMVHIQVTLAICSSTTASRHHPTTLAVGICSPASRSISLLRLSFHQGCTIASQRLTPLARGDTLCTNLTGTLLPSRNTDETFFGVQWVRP

T2: human CD70 expressed on the cell surface (human, UniProt P32970 1-193)
T2 construct: also called full length CD70 on transfected CHO cells
T2 sequence: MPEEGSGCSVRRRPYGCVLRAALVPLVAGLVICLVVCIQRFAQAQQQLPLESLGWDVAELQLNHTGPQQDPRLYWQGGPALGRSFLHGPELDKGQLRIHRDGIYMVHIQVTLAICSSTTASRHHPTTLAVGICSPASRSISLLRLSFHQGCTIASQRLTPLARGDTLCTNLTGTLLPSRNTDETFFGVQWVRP


How the values were obtained:
[1] = biological target: T1, CD70 expressed on the surface of Daudi lymphoma cells; assay: Flow cytometry binding to Daudi cells; conditions: antibody 1 μg/ml
Experimental: Anti-CD70 antibodies were tested for binding to lymphoma cells expressing CD70 on their cell surface by flow cytometry.
The lymphoma cell lines Daudi (ATCC Accession No. CCL-213), HuT 78 (ATCC Accession No. TIB-161) and Raji (ATCC Accession No. CCL-86) were each tested for antibody binding. Binding of the HuMAb 2H5 anti-CD70 human monoclonal antibody was assessed by incubating 1×10^5 cells with 2H5 at a concentration of 1 μg/ml. The cells were washed and binding was detected with a FITC-labeled anti-human IgG Ab. […] Flow cytometric analyses were performed using a FACSCalibur flow cytometry (Becton Dickinson, San Jose, Calif.). The anti-CD70 monoclonal antibody 2H5 bound to the lymphoma cell lines Daudi, HuT 78 and Raji, as measured by the mean fluorescent intensity (MFI) of staining.
The Daudi lymphoma cell line and 786-O renal carcinoma cell were further tested for antibody binding. Binding of the HuMAb 69A7 anti-CD70 human monoclonal antibody was assessed by incubating 2×10^5 cells with 69A7 at a concentration of 1 μg/ml. The cells were washed and binding was detected with a FITC-labeled anti-human IgG Ab. […] The anti-CD70 monoclonal antibody 69A7 bound to the Daudi lymphoma cell line and 786-O renal carcinoma cell line, as measured by the mean fluorescent intensity (MFI) of staining.

[2] = test system: monkey rhesus CD70+ B lymphoma cell line LCL8664; assay: FACS cross-reactivity with rhesus B lymphoma cells; format: binding; conditions: antibody 1 μg/ml
Experimental: FACS analysis was also employed to access the ability of the anti-CD70 antibody 69A7 cross reacting with the monkey rhesus CD70+B lymphoma cell line, LCL8664 (ATCC#: CRL-1805). Binding of the HuMAb 69A7 anti-CD70 human monoclonal antibody was assessed by incubating 1×10^5 cells with 69A7 at a concentration of 1 μg/ml. The cells were washed and binding was detected with a FITC-labeled anti-human IgG Ab. An isotype control antibody was used as a negative control. Flow cytometric analyses were performed using a FACSCalibur flow cytometry (Becton Dickinson, San Jose, Calif.).

[3] = biological target: T2, human CD70 expressed on the cell surface; assay: flow cytometry on 786-O cells, MFI
Experimental: Binding of the anti-CD70 human monoclonal antibodies was assessed by incubating 5×10⁵ cells with antibody at a starting concentration of 10 μg/ml and serially diluting the antibody at a 1:3 dilution. The cells were washed and binding was detected with a PE-labeled anti-human IgG Ab. Flow cytometric analyses were performed using a FACSCalibur flow cytometry (Becton Dickinson, San Jose, Calif.).

HuT 78 cells = assay: ADCC fluorescence cytotoxicity assay, HuT 78; format: cell-based, human; conditions: target to effector ratio 1:50
Experimental: In this example, anti-CD70 monoclonal antibodies were tested for the ability to kill CD70+ cell lines in the presence of effector cells via antibody dependent cellular cytotoxicity (ADCC) in a fluorescence cytotoxicity assay.
Human effector cells were prepared from whole blood as follows. Human peripheral blood mononuclear cells were purified from heparinized whole blood by standard Ficoll-paque separation. The cells were resuspended in RPMI1640 media containing 10% FBS and 200 U/ml of human IL-2 and incubated overnight at 37° C. The following day, the cells were collected and washed four times in culture media and resuspended at 2×10^7 cells/ml. […]
The CD70+ cell lines ARH-77 (human B lymphoblast leukemia; ATCC Accession No. CRL-1621), HuT 78 (human cutaneous lymphocyte lymphoma; ATCC Accession No. TIB-161), Raji (human B lymphocyte Burkitt's lymphoma; ATCC Accession No. CCL-86) and a negative control cell line L540 (human Hodgkin's lymphoma; DSMZ Deposit No. ACC 72) were tested for antibody specific ADCC to the human anti-CD70 monoclonal antibodies using the Delfia fluorescence emission analysis as follows. […]
In this example, a defucosylated and non-defucosylated anti-CD70 monoclonal antibody was tested for the ability to kill CD70+cells in the presence of effector cells via antibody dependent cellular cytotoxicity (ADCC) in a fluorescence cytotoxicity assay […]

Row | binding to Daudi cells (MFI) [1] | EC50 [3] [nM] | Molecule | cross-reactivity with monkey CD70+ B lymphoma cells [2] | ADCC, % lysis of HuT 78 (HuT 78 cells)
1 | bound | 6.93 | anti-CD70 human monoclonal antibody 69A7 (antibody, V domains shown, Human IgG from hybridoma; also called HuMAb 69A7; FITC-conjugated 69A7) VH: QVQLQESGPGLVKPSETLSLTCTVSGGSVSSDYYYWSWIRQPPGKGLEWLGYIYYSGSTNYNPSLKSRVTISVDTSKNQFSLKLRSVTTADTAVYYCARGDGDYGGNCFDYWGQGTLVTVSS VL: EIVLTQSPATLSLSPGERATLSCRASQSVSSYLAWYQQKPGQAPRLLIFDASNRATGIPARFSGSGSGTDFTLTISSLEPEDFAVYYCQQRSNWPLTFGGGTKVEIK | cross-reacts | –
2 | – | – | 2H5 NF: 2H5 HuMAb lacking fucosyl residues, expressed in CHO cell line Ms704-PF (antibody, V domains shown) VH: QVQLVESGGGVVQPGRSLRLSCAASGFTFSSYIMHWVRQAPGKGLEWVAVISYDGRNKYYADSVKGRFTISRDNSKNTLYLQMNSLRAEDTAVYYCARDTDGYDFDYWGQGTLVTVSS VL: EIVLTQSPATLSLSPGERATLSCRASQSVSSYLAWYQQKPGQAPRLLIYDASNRATGIPARFSGSGSGTDFTLTISSLEPEDFAVYYCQQRTNWPLTFGGGTKVEIK | – | increased percentage of specific lysis
